B1: SEQ ID NO 8: Chromobacterium violaceum ω-transaminase, Genbank Accession No. AAQ59697.1 (protein, listed as Chromobacterium violaceum)
chain: MQKQRTTSQWRELDAAHHLHPFTDTASLNQAGARVMTRGEGVYLWDSEGNKIIDGMAGLWCVNVGYGRKDFAEAARRQMEELPFYNTFFKTTHPAVVELSSLLAEVTPAGFDRVFYTNSGSESVDTMIRMVRRYWDVQGKPEKKTLIGRWNGYHGSTIGGASLGGMKYMHEQGDLPIPGMAHIEQPWWYKHGKDMTPDEFGVVAARWLEEKILEIGADKVAAFVGEPIQGAGGVIVPPATYWPEIERICRKYDVLLVADEVICGFGRTGEWFGHQHFGFQPDLFTAAKGLSSGYLPIGAVFVGKRVAEGLIAGGDFNHGFTYSGHPVCAAVAHANVAALRDEGIVQRVKDDIGPYMQKRWRETFSRFEHVDDVRGVGMVQAFTLVKNKAKRELFPDFGEIGTLCRDIFFRNNLIMRACGDHIVSAPPLVMTRAEVDEMLAVAERCLEEFEQTLKARGLA
B2: SEQ ID NO 10: Pseudomonas syringae ω-transaminase, Genbank Accession No. AAY39893.1 (protein, listed as Pseudomonas syringae)
chain: MSANNPQTLEWQALSSEHHLAPFSDYKQLKEKGPRIITRAEGVYLWDSEGNKILDGMSGLWCVAIGYGREELADAASKQMRELPYYNLFFQTAHPPVLELAKAISDIAPEGMNHVFFTGSGSEGNDTMLRMVRHYWALKGQPNKKTIISRVNGYHGSTVAGASLGGMTYMHEQGDLPIPGVVHIPQPYWFGEGGDMTPDEFGIWAAEQLEKKILELGVENVGAFIAEPIQGAGGVIVPPDSYWPKIKEILSRYDILFAADEVICGFGRTSEWFGSDFYGLRPDMMTIAKGLTSGYVPMGGLIVRDEIVAVLNEGGDFNHGFTYSGHPVAAAVALENIRILREEKIVERVRSETAPYLQKRLRELSDHPLVGEVRGVGLLGAIELVKDKTTRERYTDKGAGMICRTFCFDNGLIMRAVGDTMIIAPPLVISFAQIDELVEKARTCLDLTLAVLQG
B3: SEQ ID NO 3: Mycobacterium smegmatis carboxylate reductase, Genbank Accession No. ABK71854.1 (protein, listed as Mycobacterium smegmatis)
chain: MTSDVHDATDGVTETALDDEQSTRRIAELYATDPEFAAAAPLPAVVDAAHKPGLRLAEILQTLFTGYGDRPALGYRARELATDEGGRTVTRLLPRFDTLTYAQVWSRVQAVAAALRHNFAQPIYPGDAVATIGFASPDYLTLDLVCAYLGLVSVPLQHNAPVSRLAPILAEVEPRILTVSAEYLDLAVESVRDVNSVSQLVVFDHHPEVDDHRDALARAREQLAGKGIAVTTLDAIADEGAGLPAEPIYTADHDQRLAMILYTSGSTGAPKGAMYTEAMVARLWTMSFITGDPTPVINVNFMPLNHLGGRIPISTAVQNGGTSYFVPESDMSTLFEDLALVRPTELGLVPRVADMLYQHHLATVDRLVTQGADELTAEKQAGAELREQVLGGRVITGFVSTAPLAAEMRAFLDITLGAHIVDGYGLTETGAVTRDGVIVRPPVIDYKLIDVPELGYFSTDKPYPRGELLVRSQTLTPGYYKRPEVTASVFDRDGYYHTGDVMAETAPDHLVYVDRRNNVLKLAQGEFVAVANLEAVFSGAALVRQIFVYGNSERSFLLAVVVPTPEALEQYDPAALKAALADSLQRTARDAELQSYEVPADFIVETEPFSAANGLLSGVGKLLRPNLKDRYGQRLEQMYADIAATQANQLRELRRAAATQPVIDTLTQAAATILGTGSEVASDAHFTDLGGDSLSALTLSNLLSDFFGFEVPVGTIVNPATNLAQLAQHIEAQRTAGDRRPSFTTVHGADATEIRASELTLDKFIDAETLRAAPGLPKVTTEPRTVLLSGANGWLGRFLTLQWLERLAPVGGTLITIVRGRDDAAARARLTQAYDTDPELSRRFAELADRHLRVVAGDIGDPNLGLTPEIWHRLAAEVDLVVHPAALVNHVLPYRQLFGPNVVGTAEVIKLALTERIKPVTYLSTVSVAMGIPDFEEDGDIRTVSPVRPLDGGYANGYGNSKWAGEVLLREAHDLCGLPVATFRSDMILAHPRYRGQVNVPDMFTRLLLSLLITGVAPRSFYIGDGERPRAHYPGLTVDFVAEAVTTLGAQQREGYVSYDVMNPHDDGISLDVFVDWLIRAGHPIDRVDDYDDWVRRFETALTALPEKRRAQTVLPLLHAFRAPQAPLRGAPEPTEVFHAAVRTAKVGPGDIPHLDEALIDKYIRDLREFGLI
B4: SEQ ID NO 13: Vibrio fluvialis ω-transaminase, Genbank Accession No. AEA39183.1 (protein, listed as Vibrio fluvialis)
chain: MNKPQSWEARAETYSLYGFTDMPSLHQRGTVVVTHGEGPYIVDVNGRRYLDANSGLWNMVAGFDHKGLIDAAKAQYERFPGYHAFFGRMSDQTVMLSEKLVEVSPFDSGRVFYTNSGSEANDTMVKMLWFLHAAEGKPQKRKILTRWNAYHGVTAVSASMTGKPYNSVFGLPLPGFVHLTCPHYWRYGEEGETEEQFVARLARELEETIQREGADTIAGFFAEPVMGAGGVIPPAKGYFQAILPILRKYDIPVISDEVICGFGRTGNTWGCVTYDFTPDAIISSKNLTAGFFPMGAVILGPELSKRLETAIEAIEEFPHGFTASGHPVGCAIALKAIDVVMNEGLAENVRRLAPRFEERLKHIAERPNIGEYRGIGFMWALEAVKDKASKTPFDGNLSVSERIANTCTDLGLICRPLGQSVVLCPPFILTEAQMDEMFDKLEKALDKVFAEVA

How the values were obtained:
Format in all cases: biochemical
[1] = ω-transaminase activity assay, reverse direction, 7-aminoheptanoate to pimelate semialdehyde; conditions: cell free extract, 10 mM 7-aminoheptanoate, 10 mM pyruvate, 25° C., 4 h, against empty vector control, FIG. 15
Method: (§1) A sequence encoding an N-terminal His-tag was added to the genes from Chromobacterium violaceum, Pseudomonas syringae, Rhodobacter sphaeroides, and Vibrio Fluvialis encoding the ω-transaminases of SEQ ID NOs: 8, 10, 11 and 13, respectively (see FIG. 7) such that N-terminal HIS tagged ω-transaminases could be produced. Each of the resulting modified genes was cloned into a pET21a expression vector under control of the T7 promoter and each expression vector was transformed into a BL21[DE3] E. coli host. The resulting recombinant E. coli strains were cultivated at 37° C. in a 250 mL shake flask culture containing 50 mL LB media and antibiotic selection pressure, with shaking at 230 rpm. Each culture was induced overnight at 16° C. using 1 mM IPTG.
(§2) The pellet from each induced shake flask culture was harvested via centrifugation. Each pellet was resuspended and lysed via sonication. The cell debris was separated from the supernatant via centrifugation and the cell free extract was used immediately in enzyme activity assays.
Enzyme activity assays in the reverse direction (i.e., 7-aminoheptanoate to pimelate semialdehyde) were performed in a buffer composed of a final concentration of 50 mM HEPES buffer (pH=7.5), 10 mM 7-aminoheptanoate, 10 mM pyruvate and 100 μM pyridoxyl 5′ phosphate. Each enzyme activity assay reaction was initiated by adding cell free extract of the ω-transaminase gene product or the empty vector control to the assay buffer containing the 7-aminoheptanoate and incubated at 25° C. for 4 h, with shaking at 250 rpm. The formation of L-alanine from pyruvate was quantified via RP-HPLC.

[2] = ω-transaminase activity assay, 7-aminoheptanol to 7-oxoheptanol; conditions: for ω-transaminase activity for converting 7-aminoheptanol to 7-oxoheptanol (pyruvate to L-alanine): cell free extract, 10 mM 7-aminoheptanol, 10 mM pyruvate, 25° C., 4 h, against empty vector control, FIG. 19; for ω-transaminase acceptance of 7-oxoheptanol, forming 7-aminoheptanol: concluded from reversibility of the ω-transaminase activity (Example 2)
Method: A nucleotide sequence encoding an N-terminal His-tag was added to the Chromobacterium violaceum, Pseudomonas syringae and Rhodobacter sphaeroides genes encoding the ω-transaminases of SEQ ID NOs: 8, 10 and 11, respectively (see FIG. 7) such that N-terminal HIS tagged ω-transaminases could be produced. The modified genes were cloned into a pET21a expression vector under the T7 promoter. Each expression vector was transformed into a BL21[DE3] E. coli host. Each resulting recombinant E. coli strain were cultivated at 37° C. in a 250 mL shake flask culture containing 50 mL LB media and antibiotic selection pressure, with shaking at 230 rpm. Each culture was induced overnight at 16° C. using 1 mM IPTG.
as §2
Enzyme activity assays in the reverse direction (i.e., 7-aminoheptanol to 7-oxoheptanol) were performed in a buffer composed of a final concentration of 50 mM HEPES buffer (pH=7.5), 10 mM 7-aminoheptanol, 10 mM pyruvate, and 100 μM pyridoxyl 5′ phosphate. Each enzyme activity assay reaction was initiated by adding cell free extract of the ω-transaminase gene product or the empty vector control to the assay buffer containing the 7-aminoheptanol and then incubated at 25° C. for 4 h, with shaking at 250 rpm. The formation of L-alanine was quantified via RP-HPLC.

[3] = ω-transaminase activity assay, forward direction, pimelate semialdehyde to 7-aminoheptanoate; conditions: for ω-transaminase activity for converting pimelate semialdehyde to 7-aminoheptanoate (L-alanine to pyruvate): cell free extract, 10 mM pimelate semialdehyde, 10 mM L-alanine, 25° C., 4 h, against empty vector control, FIG. 16; for reversibility of the ω-transaminase activity: pimelate semialdehyde accepted, 7-aminoheptanoate synthesized: conclusion from forward and reverse assays of Example 2
Method: as §1, §2
Enzyme activity in the forward direction (i.e., pimelate semialdehyde to 7-aminoheptanoate) was confirmed for the transaminases of SEQ ID NO 10, SEQ ID NO 11 and SEQ ID NO 13. Enzyme activity assays were performed in a buffer composed of a final concentration of 50 mM HEPES buffer (pH=7.5), 10 mM pimelate semialdehyde, 10 mM L-alanine and 100 μM pyridoxyl 5′ phosphate. Each enzyme activity assay reaction was initiated by adding a cell free extract of the ω-transaminase gene product or the empty vector control to the assay buffer containing the pimelate semialdehyde and incubated at 25° C. for 4 h, with shaking at 250 rpm. The formation of pyruvate was quantified via RP-HPLC.

[4] = Carboxylate reductase activity assay, N7-acetyl-7-aminoheptanoate to N7-acetyl-7-aminoheptanal (NADPH consumption); conditions: 2 mM N7-acetyl-7-aminoheptanoate, enhanced by gene product of sfp, room temperature, 20 min, against empty vector control, FIG. 12
Method: The activity of each of the N-terminal His-tagged carboxylate reductases of SEQ ID NOs: 3, 6, and 7 (see Examples 4, and FIG. 7) for converting N7-acetyl-7-aminoheptanoate to N7-acetyl-7-aminoheptanal was assayed in triplicate in a buffer composed of a final concentration of 50 mM HEPES buffer (pH=7.5), 2 mM N7-acetyl-7-aminoheptanoate, 10 mM MgCl2, 1 mM ATP, and 1 mM NADPH. The assays were initiated by adding purified carboxylate reductase and phosphopantetheine transferase or the empty vector control to the assay buffer containing the N7-acetyl-7-aminoheptanoate then incubated at room temperature for 20 min. The consumption of NADPH was monitored by absorbance at 340 nm.

Molecule | ω-transaminase activity for converting 7-aminoheptanoate to pimelate semialdehyde (pyruvate to L-alanine) [1] | ω-transaminase activity for converting 7-aminoheptanol to 7-oxoheptanol (pyruvate to L-alanine) [2] | ω-transaminase acceptance of 7-oxoheptanol, forming 7-aminoheptanol [2] | ω-transaminase activity for converting pimelate semialdehyde to 7-aminoheptanoate (L-alanine to pyruvate) [3] | reversibility of the ω-transaminase activity: pimelate semialdehyde accepted, 7-aminoheptanoate synthesized [3] | carboxylate reductase activity for converting N7-acetyl-7-aminoheptanoate to N7-acetyl-7-aminoheptanal (NADPH consumption, absorbance at 340 nm) [4]
SEQ ID NO 11: Rhodobacter sphaeroides ω-transaminase, Genbank Accession No. ABA81135.1 | accepted 7-aminoheptanote as substrate | accepted 7-aminoheptanol as substrate | accept 7-oxoheptanol as substrate | accepted pimelate semialdehyde as substrate | accepted pimelate semialdehyde as substrate and synthesized 7-aminoheptanoate | –
B1 | accepted 7-aminoheptanote as substrate | accepted 7-aminoheptanol as substrate | accept 7-oxoheptanol as substrate | – | accepted pimelate semialdehyde as substrate and synthesized 7-aminoheptanoate | –
B2 | accepted 7-aminoheptanote as substrate | accepted 7-aminoheptanol as substrate | accept 7-oxoheptanol as substrate | accepted pimelate semialdehyde as substrate | accepted pimelate semialdehyde as substrate and synthesized 7-aminoheptanoate | –
B3 | – | – | – | – | – | accepted N7-acetyl-7-aminoheptanoate as substrate
B4 | accepted 7-aminoheptanote as substrate | – | – | accepted pimelate semialdehyde as substrate | accepted pimelate semialdehyde as substrate and synthesized 7-aminoheptanoate | –
